Source: US20260041744

Molecular target: cellular receptors (CIMPR) on normal and Pompe patient fibroblasts (UniProt P11717)
Sequence (P11717 41-2491): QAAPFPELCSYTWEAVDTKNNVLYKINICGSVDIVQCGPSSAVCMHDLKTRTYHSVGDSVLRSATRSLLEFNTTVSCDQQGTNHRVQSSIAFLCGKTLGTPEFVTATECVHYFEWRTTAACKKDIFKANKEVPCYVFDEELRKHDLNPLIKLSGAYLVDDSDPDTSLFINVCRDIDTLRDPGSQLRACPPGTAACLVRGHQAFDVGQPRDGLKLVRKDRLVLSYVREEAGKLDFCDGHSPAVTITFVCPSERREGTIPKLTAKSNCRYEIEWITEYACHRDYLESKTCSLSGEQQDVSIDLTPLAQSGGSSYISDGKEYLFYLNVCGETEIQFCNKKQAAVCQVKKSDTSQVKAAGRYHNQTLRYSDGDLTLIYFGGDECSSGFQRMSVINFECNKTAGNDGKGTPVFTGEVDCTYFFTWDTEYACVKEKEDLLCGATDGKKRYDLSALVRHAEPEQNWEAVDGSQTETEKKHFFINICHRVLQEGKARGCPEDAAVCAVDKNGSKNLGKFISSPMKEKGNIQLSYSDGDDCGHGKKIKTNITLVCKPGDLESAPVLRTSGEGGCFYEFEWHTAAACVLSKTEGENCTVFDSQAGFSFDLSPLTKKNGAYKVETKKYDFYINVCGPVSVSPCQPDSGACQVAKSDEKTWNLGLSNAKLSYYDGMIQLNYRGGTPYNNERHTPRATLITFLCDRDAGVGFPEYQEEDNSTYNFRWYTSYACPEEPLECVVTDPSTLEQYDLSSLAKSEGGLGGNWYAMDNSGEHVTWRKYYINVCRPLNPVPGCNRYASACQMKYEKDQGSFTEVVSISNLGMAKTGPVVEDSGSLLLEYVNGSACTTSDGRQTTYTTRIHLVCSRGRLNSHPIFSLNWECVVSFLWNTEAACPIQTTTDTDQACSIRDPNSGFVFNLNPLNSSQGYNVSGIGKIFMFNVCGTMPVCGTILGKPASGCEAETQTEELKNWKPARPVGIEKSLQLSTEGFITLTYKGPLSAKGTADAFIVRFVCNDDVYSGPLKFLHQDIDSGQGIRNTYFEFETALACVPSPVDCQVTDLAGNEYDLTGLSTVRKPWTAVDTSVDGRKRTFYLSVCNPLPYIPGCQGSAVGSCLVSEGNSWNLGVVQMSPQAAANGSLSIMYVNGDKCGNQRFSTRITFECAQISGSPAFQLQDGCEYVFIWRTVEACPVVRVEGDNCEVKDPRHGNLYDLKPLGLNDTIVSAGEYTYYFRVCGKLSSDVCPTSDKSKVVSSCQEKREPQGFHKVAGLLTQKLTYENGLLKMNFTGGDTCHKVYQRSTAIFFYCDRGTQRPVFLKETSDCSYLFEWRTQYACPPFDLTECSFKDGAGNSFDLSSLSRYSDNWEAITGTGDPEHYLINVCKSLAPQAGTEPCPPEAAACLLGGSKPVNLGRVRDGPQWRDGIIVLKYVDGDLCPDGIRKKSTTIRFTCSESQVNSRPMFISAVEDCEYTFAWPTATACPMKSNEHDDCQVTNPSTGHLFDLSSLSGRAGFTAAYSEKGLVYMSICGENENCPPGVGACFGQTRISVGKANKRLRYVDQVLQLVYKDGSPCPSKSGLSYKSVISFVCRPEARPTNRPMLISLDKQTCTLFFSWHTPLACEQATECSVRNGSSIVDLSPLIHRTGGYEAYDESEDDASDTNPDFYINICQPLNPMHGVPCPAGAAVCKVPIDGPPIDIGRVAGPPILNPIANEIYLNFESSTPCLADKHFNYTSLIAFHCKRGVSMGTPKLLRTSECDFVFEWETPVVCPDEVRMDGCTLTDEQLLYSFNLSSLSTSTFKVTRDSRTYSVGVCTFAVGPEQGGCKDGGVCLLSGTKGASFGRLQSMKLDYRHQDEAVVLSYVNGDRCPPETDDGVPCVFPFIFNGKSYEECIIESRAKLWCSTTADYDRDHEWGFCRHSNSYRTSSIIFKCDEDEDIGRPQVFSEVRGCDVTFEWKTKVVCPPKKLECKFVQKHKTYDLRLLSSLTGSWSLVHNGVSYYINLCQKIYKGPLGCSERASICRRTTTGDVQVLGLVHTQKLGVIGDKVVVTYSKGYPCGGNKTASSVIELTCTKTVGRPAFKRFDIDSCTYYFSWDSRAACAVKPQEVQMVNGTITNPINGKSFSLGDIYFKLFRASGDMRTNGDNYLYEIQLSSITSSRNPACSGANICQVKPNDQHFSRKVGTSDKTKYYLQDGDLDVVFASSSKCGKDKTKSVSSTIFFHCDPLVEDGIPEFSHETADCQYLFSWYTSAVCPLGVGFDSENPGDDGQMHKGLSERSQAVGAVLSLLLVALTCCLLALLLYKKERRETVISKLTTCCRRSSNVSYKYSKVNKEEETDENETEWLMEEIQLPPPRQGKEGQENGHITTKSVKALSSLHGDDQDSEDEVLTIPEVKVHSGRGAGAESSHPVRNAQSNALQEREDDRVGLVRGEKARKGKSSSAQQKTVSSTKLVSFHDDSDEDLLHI

Row | Substance | stated: internalized; internalized GAA activity (nmol/mg protein/hr) in skeletal muscle myoblasts against rhGAA added (nM) | stated: internalized; internalized GAA activity (pmol 4-MU/mg/h), 4MU-α-Glc assay, Pompe patient fibroblasts, 20 nM rhGAA | stated: taken up; internalized GAA activity in CRL 2076 (normal fibroblasts) | stated: taken up; internalized GAA activity in PM25 (Pompe fibroblasts) | stated: not internalized; internalized GAA activity (pmol 4-MU/mg/h), 4MU-α-Glc assay, Pompe patient fibroblasts, 20 nM rhGAA
1 | alglucosidase alfa (mock-treated control of Example 16) | Alglucosidase alfa curve rises slowly: about 150 near 30 nM, about 250 near 60 nM, about 390 at 125 nM, about 475 at 250 nM. It is still rising with no plateau and lies below ATB200 at every concentration | bar 'Alglucosidase alfa + Mock' lies a little below the 300 tick, clearly above untreated cells and well below the cipaglucosidase alfa + Mock bar |  |  | 
2 | LUMIZYME® (alglucosidase alfa, conventional rhGAA product) |  |  | curve marked Alglucosidase Alfa rises slowly: about 8 at about 10 nM, about 16 at about 27 nM, about 23 at about 80 nM, about 35 nmol/mg protein/hr at about 240 nM, no clear plateau; with +M6P at about 240 nM (square) about 1 | curve marked Alglucosidase Alfa rises slowly: about 7 at about 10 nM, about 13 at about 27 nM, about 27 at about 80 nM, about 37 nmol/mg protein/hr at about 240 nM, still rising; with +M6P at about 245 nM (square) about 3 | 
3 | ATB200 rhGAA (recombinant human acid α-glucosidase produced from CHO cell line GA-ATB200) | ATB200 curve rises steeply from 0, to about 400 near 15 nM and about 540 near 30 nM, then flattens: about 630 near 60 nM, about 700 at 125 nM, about 740 at 250 nM | bar 'Cipaglucosidase alfa + Mock' is the highest, a little above the 900 tick; untreated cells are at 0 | curve marked ATB200 rises steeply from about 0 to about 26 at about 10 nM and about 33 nmol/mg protein/hr at about 27 nM, then plateau of about 34-35 up to about 240 nM; with +M6P at about 240 nM (triangle) only about 5 | curve marked ATB200 rises steeply from about 0 to about 30 at about 10 nM and about 36 at about 27 nM, then plateau of about 40 nmol/mg protein/hr at about 80 nM (point of about 45 at about 240 nM); with +M6P at about 245 nM (triangle) about 1 | 
4 | PAP-treated cipaglucosidase alfa (dephosphorylated cipaglucosidase alfa) |  |  |  |  | bar 'Cipaglucosidase alfa + PAP' is at about 0, at the level of 'Untreated Cells' and 'PAP Alone'
